According to US8273855 (JIANGSU NOVAVAC BIO TEC, dated 2012):

How the values were obtained:
[1] = target: T1, Notch2 on OLN-93 cells (rat, UniProt Q9QW30 26-2471); experiment: OLN-93 cell adhesion to F3-Fc substrate with antibody blockade
T1 construct: whole, on cells; also called OLN cells
Experimental: This was carried out as previously described (Xiao et al, 1996). Briefly, 35 mm tissue culture petri dishes (Becton Dickinson) were coated with methanol solubilized nitrocellulose (Lagenaur and Lemon, 1987) and air-dried under a sterile hood.

[2] = target: myc-tagged full-length mouse Notch1 on transfected OLN cells (mouse, UniProt Q01705 19-2531); experiment: cell-based or functional assay
[3] = target: Notch on primary rat oligodendrocytes and oligodendrocyte precursor cells (rat, UniProt Q07008 19-2531); experiment: cell-based or functional assay
Notch on primary rat oligodendrocytes and oligodendrocyte precursor cells, sequence (Q07008 19-2531): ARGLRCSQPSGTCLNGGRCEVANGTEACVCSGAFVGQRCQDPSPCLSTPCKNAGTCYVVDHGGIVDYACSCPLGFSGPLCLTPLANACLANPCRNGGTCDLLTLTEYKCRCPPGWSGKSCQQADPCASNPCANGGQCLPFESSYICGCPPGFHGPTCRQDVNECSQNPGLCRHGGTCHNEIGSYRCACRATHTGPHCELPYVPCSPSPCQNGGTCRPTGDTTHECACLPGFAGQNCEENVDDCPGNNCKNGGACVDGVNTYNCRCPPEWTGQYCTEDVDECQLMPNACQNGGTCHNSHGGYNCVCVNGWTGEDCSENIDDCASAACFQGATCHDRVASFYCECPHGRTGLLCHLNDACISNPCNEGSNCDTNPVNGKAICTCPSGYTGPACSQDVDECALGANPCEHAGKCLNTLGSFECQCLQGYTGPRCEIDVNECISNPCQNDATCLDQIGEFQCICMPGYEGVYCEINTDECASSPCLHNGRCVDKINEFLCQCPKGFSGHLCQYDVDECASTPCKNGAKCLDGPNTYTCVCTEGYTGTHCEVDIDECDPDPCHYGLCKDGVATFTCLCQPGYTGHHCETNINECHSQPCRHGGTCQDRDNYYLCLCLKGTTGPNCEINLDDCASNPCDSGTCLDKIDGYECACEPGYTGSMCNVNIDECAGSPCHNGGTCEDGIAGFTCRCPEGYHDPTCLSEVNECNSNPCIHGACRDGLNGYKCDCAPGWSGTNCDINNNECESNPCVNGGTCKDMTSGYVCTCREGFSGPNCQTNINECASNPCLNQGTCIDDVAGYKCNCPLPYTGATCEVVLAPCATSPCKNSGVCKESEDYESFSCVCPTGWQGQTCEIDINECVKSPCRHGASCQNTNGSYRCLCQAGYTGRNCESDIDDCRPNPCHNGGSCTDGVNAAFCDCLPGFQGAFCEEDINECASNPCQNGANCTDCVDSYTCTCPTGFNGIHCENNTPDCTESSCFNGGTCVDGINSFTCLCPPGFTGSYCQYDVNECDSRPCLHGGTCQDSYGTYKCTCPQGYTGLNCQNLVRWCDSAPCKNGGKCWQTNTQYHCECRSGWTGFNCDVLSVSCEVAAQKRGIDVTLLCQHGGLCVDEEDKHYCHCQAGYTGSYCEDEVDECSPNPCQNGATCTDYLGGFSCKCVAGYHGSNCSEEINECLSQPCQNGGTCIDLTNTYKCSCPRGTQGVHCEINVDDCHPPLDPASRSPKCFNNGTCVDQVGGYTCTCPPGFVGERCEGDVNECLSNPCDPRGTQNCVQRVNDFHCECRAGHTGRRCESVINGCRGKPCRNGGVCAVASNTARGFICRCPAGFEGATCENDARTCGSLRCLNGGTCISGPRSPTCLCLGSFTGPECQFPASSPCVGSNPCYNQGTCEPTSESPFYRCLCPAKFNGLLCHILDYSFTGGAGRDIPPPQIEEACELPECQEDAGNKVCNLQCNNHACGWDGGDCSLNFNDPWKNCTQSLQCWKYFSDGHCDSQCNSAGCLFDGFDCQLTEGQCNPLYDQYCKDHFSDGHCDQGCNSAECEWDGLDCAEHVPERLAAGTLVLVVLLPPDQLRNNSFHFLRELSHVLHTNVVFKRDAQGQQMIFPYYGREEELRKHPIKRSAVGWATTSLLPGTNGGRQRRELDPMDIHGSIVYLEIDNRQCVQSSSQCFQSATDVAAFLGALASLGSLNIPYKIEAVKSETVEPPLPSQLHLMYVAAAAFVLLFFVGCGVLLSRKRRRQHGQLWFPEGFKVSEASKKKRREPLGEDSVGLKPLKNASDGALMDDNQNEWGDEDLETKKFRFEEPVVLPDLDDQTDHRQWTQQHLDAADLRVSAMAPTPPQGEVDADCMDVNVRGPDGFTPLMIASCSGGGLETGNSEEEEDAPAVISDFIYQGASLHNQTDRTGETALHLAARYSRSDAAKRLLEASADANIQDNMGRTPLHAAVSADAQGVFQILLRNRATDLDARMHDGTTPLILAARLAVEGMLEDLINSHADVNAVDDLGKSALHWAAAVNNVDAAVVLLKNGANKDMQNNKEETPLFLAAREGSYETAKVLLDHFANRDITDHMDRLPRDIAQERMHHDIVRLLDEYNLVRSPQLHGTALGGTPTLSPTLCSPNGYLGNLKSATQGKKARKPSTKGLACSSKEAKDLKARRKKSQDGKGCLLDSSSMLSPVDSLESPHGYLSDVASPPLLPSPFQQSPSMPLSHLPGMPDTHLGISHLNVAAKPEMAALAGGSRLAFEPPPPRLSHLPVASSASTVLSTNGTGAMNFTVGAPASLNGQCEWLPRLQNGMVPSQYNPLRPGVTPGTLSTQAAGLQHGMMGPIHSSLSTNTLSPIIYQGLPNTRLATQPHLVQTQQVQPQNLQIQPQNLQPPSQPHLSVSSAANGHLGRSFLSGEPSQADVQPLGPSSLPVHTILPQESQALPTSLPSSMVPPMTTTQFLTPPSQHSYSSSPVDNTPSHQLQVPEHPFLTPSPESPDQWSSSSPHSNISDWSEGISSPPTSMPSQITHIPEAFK

[4] = target: T2, Caspr (native, adult rat brain membrane extracts) (rat, UniProt P97846 21-1381); experiment: co-immunoprecipitation from adult rat brain membrane extracts, Western blot
T2 construct: also called Paranodin; contactin-associated protein
T2 sequence (looked up): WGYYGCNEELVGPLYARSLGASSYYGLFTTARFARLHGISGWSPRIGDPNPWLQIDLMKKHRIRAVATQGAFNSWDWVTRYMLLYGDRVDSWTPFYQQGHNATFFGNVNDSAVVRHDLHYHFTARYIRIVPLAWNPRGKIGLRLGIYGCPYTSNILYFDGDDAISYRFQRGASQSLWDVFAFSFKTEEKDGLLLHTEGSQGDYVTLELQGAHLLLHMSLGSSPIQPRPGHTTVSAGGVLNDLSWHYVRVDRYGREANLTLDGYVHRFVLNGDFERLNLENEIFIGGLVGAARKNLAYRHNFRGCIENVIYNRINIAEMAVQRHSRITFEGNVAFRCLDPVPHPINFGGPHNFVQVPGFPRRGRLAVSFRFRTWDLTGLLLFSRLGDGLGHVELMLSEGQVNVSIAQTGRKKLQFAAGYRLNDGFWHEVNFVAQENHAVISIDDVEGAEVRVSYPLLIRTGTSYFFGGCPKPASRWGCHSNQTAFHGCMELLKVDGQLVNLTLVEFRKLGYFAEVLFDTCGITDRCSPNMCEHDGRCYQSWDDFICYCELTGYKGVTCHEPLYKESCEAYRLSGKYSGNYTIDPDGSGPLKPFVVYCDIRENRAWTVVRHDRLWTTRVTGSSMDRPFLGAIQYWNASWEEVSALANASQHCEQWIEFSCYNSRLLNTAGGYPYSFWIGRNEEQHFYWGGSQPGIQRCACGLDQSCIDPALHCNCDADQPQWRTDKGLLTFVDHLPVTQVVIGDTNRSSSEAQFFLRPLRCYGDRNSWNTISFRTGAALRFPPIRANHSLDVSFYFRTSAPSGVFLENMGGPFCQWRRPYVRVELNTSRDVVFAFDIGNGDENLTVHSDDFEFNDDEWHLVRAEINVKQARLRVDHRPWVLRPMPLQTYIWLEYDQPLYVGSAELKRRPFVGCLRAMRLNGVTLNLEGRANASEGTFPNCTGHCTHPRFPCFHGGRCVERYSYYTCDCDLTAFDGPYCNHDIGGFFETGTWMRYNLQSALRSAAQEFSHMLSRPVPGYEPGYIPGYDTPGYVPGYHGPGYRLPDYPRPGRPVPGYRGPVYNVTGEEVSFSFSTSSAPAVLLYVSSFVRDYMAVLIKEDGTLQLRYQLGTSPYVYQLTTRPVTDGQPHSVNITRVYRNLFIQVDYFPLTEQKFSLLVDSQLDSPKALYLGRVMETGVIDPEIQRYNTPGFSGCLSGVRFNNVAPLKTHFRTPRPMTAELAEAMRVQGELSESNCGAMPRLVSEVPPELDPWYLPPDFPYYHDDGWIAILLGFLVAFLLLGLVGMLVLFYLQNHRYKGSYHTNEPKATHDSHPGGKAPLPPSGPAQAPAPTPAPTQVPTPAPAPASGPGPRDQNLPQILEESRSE
Experimental: Briefly, brain tissue was homogenized in ice-cold homogenizing buffer (320 mM sucrose, 10 mM Tris-HCl pH7.4, 1 mM NaHCO_3 pH7.4, 1 mM MgCl_2) supplemented with 1% protease inhibitor cocktail (Amersham), and subsequently centrifuged at 5,000 g for 15 min. The supernatant was collected and spun at 60,000 g (Beckman ultracentrifuge) for 60 min at 4° C. Pellets were then dissolved in a lysis buffer (10 mM Tris-HCl pH9, 150 mM NaCl, 0.5% Triton X-100, 1% sodium deoxycholate (DOC), 0.5% SDS, 2 mM EDTA, and 1% protease inhibitor cocktail) for subsequent experiments.

[5] = target: T3, F3 on F3-transfected CHO cells (UniProt P12960 21-1001); experiment: cell adhesion assay, F3-CHO cells on coated substrate
T3 construct: whole, on cells; also called F3-CHO; F3-expressing CHO cells
T3 sequence (looked up): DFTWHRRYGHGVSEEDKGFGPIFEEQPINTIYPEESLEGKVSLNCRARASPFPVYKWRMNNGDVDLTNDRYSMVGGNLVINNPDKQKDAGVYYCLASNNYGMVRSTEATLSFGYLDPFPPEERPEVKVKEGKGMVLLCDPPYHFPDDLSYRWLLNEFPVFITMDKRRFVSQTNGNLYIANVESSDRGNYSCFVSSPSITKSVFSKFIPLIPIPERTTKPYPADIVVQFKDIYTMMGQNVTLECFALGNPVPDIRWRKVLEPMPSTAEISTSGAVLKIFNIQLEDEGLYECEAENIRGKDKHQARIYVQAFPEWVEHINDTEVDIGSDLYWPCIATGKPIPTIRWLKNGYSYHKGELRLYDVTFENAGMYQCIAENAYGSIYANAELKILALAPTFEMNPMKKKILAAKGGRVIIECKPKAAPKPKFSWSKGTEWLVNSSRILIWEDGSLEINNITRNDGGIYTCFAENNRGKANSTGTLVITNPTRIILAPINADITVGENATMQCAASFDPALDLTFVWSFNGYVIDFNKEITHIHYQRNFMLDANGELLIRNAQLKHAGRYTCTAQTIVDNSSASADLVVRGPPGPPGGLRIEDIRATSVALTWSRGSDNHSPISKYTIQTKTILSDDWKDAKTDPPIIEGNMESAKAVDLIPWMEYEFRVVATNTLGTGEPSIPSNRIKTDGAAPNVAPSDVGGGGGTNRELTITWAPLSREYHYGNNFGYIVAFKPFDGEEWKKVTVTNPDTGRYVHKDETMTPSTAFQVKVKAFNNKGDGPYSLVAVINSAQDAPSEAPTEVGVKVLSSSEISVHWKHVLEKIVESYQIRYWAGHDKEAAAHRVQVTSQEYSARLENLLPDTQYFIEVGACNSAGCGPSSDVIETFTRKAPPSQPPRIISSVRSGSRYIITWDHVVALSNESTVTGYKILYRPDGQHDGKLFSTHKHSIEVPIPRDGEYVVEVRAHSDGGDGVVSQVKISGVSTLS

T1 sequence (Q9QW30 26-2471): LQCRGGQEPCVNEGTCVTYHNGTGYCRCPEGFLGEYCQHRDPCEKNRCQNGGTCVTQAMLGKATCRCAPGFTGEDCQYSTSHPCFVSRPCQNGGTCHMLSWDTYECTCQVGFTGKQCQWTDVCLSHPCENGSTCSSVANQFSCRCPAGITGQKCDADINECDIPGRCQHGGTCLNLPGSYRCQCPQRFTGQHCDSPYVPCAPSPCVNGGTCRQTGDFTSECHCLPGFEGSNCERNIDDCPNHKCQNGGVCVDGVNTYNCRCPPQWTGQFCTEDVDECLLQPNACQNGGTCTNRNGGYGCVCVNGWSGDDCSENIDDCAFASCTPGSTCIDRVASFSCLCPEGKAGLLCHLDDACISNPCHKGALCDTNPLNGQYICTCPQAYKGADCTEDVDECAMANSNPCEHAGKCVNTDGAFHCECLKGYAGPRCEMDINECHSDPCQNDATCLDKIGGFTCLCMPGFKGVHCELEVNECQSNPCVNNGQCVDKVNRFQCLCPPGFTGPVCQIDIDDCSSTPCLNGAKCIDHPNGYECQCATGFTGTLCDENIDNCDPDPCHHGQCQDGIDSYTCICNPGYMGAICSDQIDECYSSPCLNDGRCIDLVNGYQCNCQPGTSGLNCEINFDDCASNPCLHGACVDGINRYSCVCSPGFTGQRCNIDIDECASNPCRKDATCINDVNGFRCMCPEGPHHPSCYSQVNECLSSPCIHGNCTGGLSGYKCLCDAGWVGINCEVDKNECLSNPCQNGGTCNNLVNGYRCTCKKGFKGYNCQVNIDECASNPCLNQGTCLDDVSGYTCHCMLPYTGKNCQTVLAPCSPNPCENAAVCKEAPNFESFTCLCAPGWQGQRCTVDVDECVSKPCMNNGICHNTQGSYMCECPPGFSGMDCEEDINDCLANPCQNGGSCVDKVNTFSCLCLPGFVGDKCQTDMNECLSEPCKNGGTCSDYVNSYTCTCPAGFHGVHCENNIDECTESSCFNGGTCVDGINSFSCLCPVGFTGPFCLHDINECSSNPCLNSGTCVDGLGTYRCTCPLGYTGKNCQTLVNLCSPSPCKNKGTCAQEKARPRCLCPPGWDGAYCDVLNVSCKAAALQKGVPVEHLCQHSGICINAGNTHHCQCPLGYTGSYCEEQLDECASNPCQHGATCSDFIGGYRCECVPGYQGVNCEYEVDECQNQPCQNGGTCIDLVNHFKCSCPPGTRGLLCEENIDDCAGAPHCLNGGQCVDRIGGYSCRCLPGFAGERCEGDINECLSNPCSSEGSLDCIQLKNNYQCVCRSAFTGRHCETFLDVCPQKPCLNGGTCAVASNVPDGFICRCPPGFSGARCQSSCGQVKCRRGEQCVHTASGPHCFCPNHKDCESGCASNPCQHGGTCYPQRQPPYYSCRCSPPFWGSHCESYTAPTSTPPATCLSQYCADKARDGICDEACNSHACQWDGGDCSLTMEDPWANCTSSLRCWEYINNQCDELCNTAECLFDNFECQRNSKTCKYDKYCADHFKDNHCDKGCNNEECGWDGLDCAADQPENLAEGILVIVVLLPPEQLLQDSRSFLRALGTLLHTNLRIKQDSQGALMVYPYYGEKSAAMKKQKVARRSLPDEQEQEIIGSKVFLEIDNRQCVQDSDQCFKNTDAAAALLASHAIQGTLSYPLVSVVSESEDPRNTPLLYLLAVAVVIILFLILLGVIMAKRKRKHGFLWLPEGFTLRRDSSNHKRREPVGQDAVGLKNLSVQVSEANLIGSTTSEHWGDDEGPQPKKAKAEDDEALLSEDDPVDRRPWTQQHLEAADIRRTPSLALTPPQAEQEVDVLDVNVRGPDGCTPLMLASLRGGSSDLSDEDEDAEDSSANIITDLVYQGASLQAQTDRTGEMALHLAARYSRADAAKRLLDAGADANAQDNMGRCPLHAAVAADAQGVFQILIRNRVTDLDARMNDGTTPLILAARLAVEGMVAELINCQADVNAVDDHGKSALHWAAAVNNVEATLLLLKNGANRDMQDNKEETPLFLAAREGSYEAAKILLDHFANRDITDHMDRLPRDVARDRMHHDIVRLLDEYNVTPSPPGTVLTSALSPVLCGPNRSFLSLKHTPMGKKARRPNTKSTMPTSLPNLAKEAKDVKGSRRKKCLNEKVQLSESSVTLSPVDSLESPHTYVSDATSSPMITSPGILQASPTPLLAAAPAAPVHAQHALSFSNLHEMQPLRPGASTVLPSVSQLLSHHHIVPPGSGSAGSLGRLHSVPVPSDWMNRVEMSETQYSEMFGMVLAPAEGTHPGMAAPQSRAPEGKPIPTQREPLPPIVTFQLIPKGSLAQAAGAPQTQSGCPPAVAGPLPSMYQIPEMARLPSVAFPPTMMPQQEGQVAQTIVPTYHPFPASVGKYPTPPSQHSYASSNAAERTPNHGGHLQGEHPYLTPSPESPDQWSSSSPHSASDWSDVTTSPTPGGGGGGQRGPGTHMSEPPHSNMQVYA

B1: F3-Fc (Fc fusion, mouse, UniProt P12960 21-1001, looked up)
chain: T3 sequence (looked up)
notes: domain: F3 without the GPI-anchor; also called F3 substrate; soluble F3; not shown: human IgG Fc
binding result [1]: binds
nuclear NICD staining intensity [2]: 2 fold
MAG mRNA, real-time RT-PCR, primary oligodendrocytes on protein substrate against BSA [3]: ~8 fold
MAG transcripts, real-time PCR, primary OLs on F3 substrate against BSA [3]: ~16 fold

B2: NB-3 (native, rat brain) (ligand, UniProt P97528 20-999, looked up)
chain: ESRFTRPIFIQEPQDVIFPLDLSRSEIILSCTASGYPSPHYRWKQNGTDIDFSMTYHYRLDGGSLAISSPRTDQDIGIYQCLATNPVGTILSRKAKLQFAYIEDFETKSRSTVSVREGQGVVLLCGPPPHFGELSYDWTFNDNPLYVQEDKRRFVSQNTGNLYIAKVEPSDVGNYTCFVTNKEAHRSVQGPPTPLVQRTDGVMGEYEPKIEVRFPETIQAAKDSSVKLECFALGNPVPDISWRRLDGSPMPGKVKYSNSQATLEIPKFQQEDEGFYECVAGNLRGRNLAKGQLIFYAPPEWEQKIQNTYLSIYDSLFWECKASGNPNPSYTWLKNGERLNTEERIQTENGTLIITMLNVSDSGIYQCAAENKYQTIYANAELRVLASAPDFSKNPIKKISVVQVGGDISIECKPNAFPKASISWKRGTENLKQSKRVFFLEDGSLKICNVTRSDAGSYTCVATNQFGNGKSSGSLIVKERTVITVPPSKMDVTVGESIVLPCQVSHDPTMEVLFVWYFNGDVIDLKKGVAHFERIGGESVGDLMIRNIQLGHSGKYLCTVQTTLERLSAVADIIVRGPPGPPEDVKVEHISSTTSQLSWRPGPDNNSPIQIFTIQTRTPFSVGWQAVATVPEILNGQTYNATVIGLSPWVEYEFRVVAGNNIGIGEPSKPSELLRTKASIPNVAPVNINGGGGSRSELVITWEPIPEELQNGEGFGYIIMFRPVGSTTWMKEKVALVESSKFIYRNESIMPLSPFEVKVGVYNNEGEGSLSTVSIVYSGEDEPRLAPRGTSVQSFSASDMEVSWNAIAWNRNTGRVLGYEVLYWTDNSKESMIGKIRVSGNVTTKNITGLRANTIYFASVRAYNTAGTGPSSPPVNVTTKKSPPSQPPANIAWKLSNSKLCLNWEHVKTMENESEVLGYKILYRQNRQSKTHVLETNNTSAELLVPFEEDYLIEIRTVSDGGDGSSSEEIRIPKMSSLSS
binding result [4]: no binding

B3: NB-3-His (ligand, rat)
chain: ESRFTRPIFIQEPQDVIFPLDLSRSEIILSCTASGYPSPHYRWKQNGTDIDFSMTYHYRLDGGSLAISSPRTDQDIGIYQCLATNPVGTILSRKAKLQFAYIEDFETKSRSTVSVREGQGVVLLCGPPPHFGELSYDWTFNDNPLYVQEDKRRFVSQNTGNLYIAKVEPSDVGNYTCFVTNKEAHRSVQGPPTPLVQRTDGVMGEYEPKIEVRFPETIQAAKDSSVKLECFALGNPVPDISWRRLDGSPMPGKVKYSNSQATLEIPKFQQEDEGFYECVAGNLRGRNLAKGQLIFYAPPEWEQKIQNTYLSIYDSLFWECKASGNPNPSYTWLKNGERLNTEERIQTENGTLIITMLNVSDSGIYQCAAENKYQTIYANAELRVLASAPDFSKNPIKKISVVQVGGDISIECKPNAFPKASISWKRGTENLKQSKRVFFLEDGSLKICNVTRSDAGSYTCVATNQFGNGKSSGSLIVKERTVITVPPSKMDVTVGESIVLPCQVSHDPTMEVLFVWYFNGDVIDLKKGVAHFERIGGESVGDLMIRNIQLGHSGKYLCTVQTTLERLSAVADIIVRGPPGPPEDVKVEHISSTTSQLSWRPGPDNNSPIQIFTIQTRTPFSVGWQAVATVPEILNGQTYNATVIGLSPWVEYEFRVVAGNNIGIGEPSKPSELLRTKASIPNVAPVNINGGGGSRSELVITWEPIPEELQNGEGFGYIIMFRPVGSTTWMKEKVALVESSKFIYRNESIMPLSPFEVKVGVYNNEGEGSLSTVSIVYSGEDEPRLAPRGTSVQSFSASDMEVSWNAIAWNRNTGRVLGYEVLYWTDNSKESMIGKIRVSGNVTTKNITGLRANTIYFASVRAYNTAGTGPSSPPVNVTTKKSPPSQPPANIAWKLSNSKLCLNWEHVKTMENESEVLGYKILYRQNRQSKTHVLETNNTSAELLVPFEEDYLIEIRTVSDGGDGSSSEEIRIPKMSSLSSHHHHHH
MAG mRNA, real-time RT-PCR, primary oligodendrocytes on protein substrate against BSA [3]: ~8 fold

B4: GST-Nogo-66 (other, UniProt Q9NQC3 1055-1120, looked up)
chain: RIYKGVIQAIQKSDEGHPFRAYLESEVAISEELVQKYSNSALGHVNCTIKELRRLFLVDDLVDSLK
notes: also called Nogo-66-GST; recombinant GST-Nogo-66 protein; not shown: glutathione S-transferase (GST) encoded by vector pGEX-KG
binding result [5]: no binding
